Data from the nanobody polyreactivity screen of Harvey et al. (2022).

Assay: yeast display, Sf9 membrane polyspecificity reagent, FACS + sequencing; frameworks hold sequencing errors
Method in brief: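 Nanobodies from a synthetic yeast display library (Saccharomyces cerevisiae BJ5465), induced 36–48 hours with galactose, were stained 1 hour at 4 °C with 10% biotinylated, detergent-solubilized Sf9 membrane reagent, enriched on streptavidin microbeads, then FACS-sorted. Anti-HA (expression) and streptavidin (reagent binding) fluorescence set low and high (top ~1%) gates. Polyreactivity labels come from the gate of origin. Genes were colony-PCR amplified, MiSeq 2 × 250 sequenced and filtered by CDR length.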

Row | Sequence | polyreactivity (PSR sort gate)
1 | QVQLVESGGGLVQAGGSLRLSCAASGSILQQIYAMGWYRPAPGKERELVAAISASGGSTYYADSVKGRFTISRDNAKNTVYLQMNSLKPEDTAVYYCNKVGYYASVLGYDYWGQGTQVTVSS | high polyreactivity
2 | QVQLVESGGGLVQAGGSLRLSCAASGSILQQYTMGWYRPAPGKERELVAAISSSGSSTYYADSVKGRFTISRDNAKNTVYLQMNSLKPEDTAVYYCNADYHDKFYWGQGTQVTVSS | low polyreactivity
3 | QVQLVESGGGLVQAGGSLRLSCAASGSILQSYAMGWYRQAPGKERELVAAISGSGGSTYYADSVKGRFTISRDNAKNTVYLQMNSLKPEDTAVYYCAKGPLYRTSRGEFGYWGQGTQVTVSS | low polyreactivity
4 | QVQLVESGGGLVQAGGSLRLSCAASGSILQVYAMGWYRQAPGKERELVAGISWGGGRTYADSVKGRFTISRDNAKNTVYLQMISLKPEDTAVYYCNKVWRFGYYGSYYWGQGTLVTVSS | high polyreactivity
5 | QVQLVESGGGLVQAGGSLRLSCAASGSILQYKAMGWYRQAPGKERELVADITSSGGSTYYADSVKGRFTISRDNAKYTVSLQMNSLKPEDTAVYYFAKDTHWAYYWGQGTQVTVSS | low polyreactivity
6 | QVQLVESGGGLVQAGGSLRLSCAASGSILRRNTMGWYRQAPGKERELVAAINKSGGSTYYADSVKGRFTISRDNAKNTVYLQMNSLKPEDTAVYYCNRDNYYGTKYDYWGQGTQVTVSS | low polyreactivity
7 | QVQLVESGGGLVQAGGSLRLSCAASGSILSAYAMGWSRQAPGKERELVAAISWSGGSTYYADSVKGRFTISRDNAKNTVYLQMNSLKPEDTAVYYCATVNKKWRRYDYWGQGTQVTVSS | high polyreactivity
8 | QVQLVESGGGLVQAGGSLRLSCAASGSILSGNTMGWYRPAPGKERELVAAISYGGGSTYYADSVKGRFTISRDNAKNTVYLQMNSLKPEDTAVYYCAADPWYVAYLLDGYGMDYWGQGTQVTVSS | low polyreactivity
9 | QVQLVESGGGLVQAGGSLRLSCAASGSILSYNAMGWYRQAPGKERELVATITGTGGSTRYADSVKGRFTISRDNAKNTVYLQMNSLKPEDTAVYYCATAAWWYYRIYHEFGYWGQGTQVTVSS | high polyreactivity
10 | QVQLVESGGGLVQAGGSLRLSCAASGSILSYYAMGWYRQAPGKERELVAAISKSGGRTYYADSVKGRFTISRDNAKNTVYLQMNSLKPEDTAVYYCAAPATYKYDYWGQGTQVTVSS | high polyreactivity
11 | QVQLVESGGGLVQAGGSLRLSCAASGSILTHYAMGWYRQAPGKERELVAAITWRGGSTYYADSVKGRFTISRDNAKNTVYLQMNSLKPEDSAVYYCNADYFGGGDYWGQGTQVTVSS | low polyreactivity
12 | QVQLVESGGGLVQAGGSLRLSCAASGSILTSYAMGWSRQAPGKERELVAAISTTGGSTYYADSVKGRFTISRDNAKNTVYLQMNRLKPEDSAVYYCAAAGRTYRPGTGGYGYWGQGTQVTVSS | low polyreactivity
13 | QVQLVESGGGLVQAGGSLRLSCAASGSILTVYAMGWYRQAHGKERELVARIRSGDRTYYADSVKGRFTISRDNAKNTVYLQMNSLKPEDTAVYYCAAGSQRRYYHTNWDSFNYWGQGTQVTVSS | low polyreactivity
14 | QVQLVESGGGLVQAGGSLRLSCAASGSILVGNAMGWYRQAPGIERELVAGSSESDGSTNYADSGKGRFTISRDKSKNTVYLPMNSLKPEETAVYYRAADIWTSGDIPYDYWGQGTQVTVSS | low polyreactivity
15 | QVQLVESGGGLVQAGGSLRLSCAASGSILVGYAMGRYRLAPGKERELVAAISFSGGSTYYADSVKGRFTISRDNAKNTVYLQMNRLKQEDTAVYYCAAKRRVWIFYSSSDDYWGQGSQVTVSS | low polyreactivity
16 | QVQLVESGGGLVQAGGSLRLSCAASGSILVPYAMGWYRQAPGKERELVAAISIRTGSTYYADSVKGRFTISRDNAKNTVYLQMNSLKPEDTAVYYCNAAHRKPYTGLNYWGQGTQVTVSS | high polyreactivity

Row | Sequence | polyreactivity (PSR sort gate)
17 | QVQLVESGGGLVQAGGSLRLSCAASGSILVPYSMGWYRQAPGKERELVAAISWGGGSTYYADSVKGRFTISRDNAKNTVYLQMNSLKPEDTAVYYCAADFGYYDYDYWGQGTQVTVSS | low polyreactivity
18 | QVQLVESGGGLVQAGGSLRLSCAASGSILVYYAMGWYRQAPGKEREFVAAITRSGGSTYYADSVKGRFTISRDNAKNTVYLQMNSLKPEDTAVYYCNARDVVWKRFTRYDFWGQGTQVTVSS | high polyreactivity
19 | QVQLVESGGGLVQAGGSLRLSCAASGSILWHNAKGWYRQAPGKEREFVAAISARGTRTYYADSVKGRFTISRDNAKNSVYLQMNSLKPEDTAVYYCAARYWDDRARAEDYWGQGTQVTVSS | high polyreactivity
20 | QVQLVESGGGLVQAGGSLRLSCAASGSILWHNAMGCYRQAPGKEREFVAAISARGTRTYYADSVKGRFTISRDNAKITVYLQMNSLKPEDTAVDYCAARYWDDRARAEDYWGQGTQVTVSS | high polyreactivity
21 | QVQLVESGGGLVQAGGSLRLSCAASGSILYANAMGWYRQAPGKERELVAAISARGTSTYYADSVKGRFTISRDNAKNTVYLQMNSLKPEDTAVYYCATGRKNAAQRWGYYYWGQGTQVTVSS | high polyreactivity
22 | QVQLVESGGGLVQAGGSLRLSCAASGSILYFNAMGLYRQAPGKERELVATITSGGSTNYADSVKWRFTISRDNAKNTVYLQMNSQKPEDTAVYYSAADYSTRKADYWVQGTQVTVSS | low polyreactivity
23 | QVQLVESGGGLVQAGGSLRLSCAASGSILYGNDMGWYRQAPGKERELVATITSSDSTYYADSVKGRFTISRDNAKNTVYLQMNSLKPEDTAVYYCAADSSEWLLKDDYWGQGTQVTVSS | low polyreactivity
24 | QVQLVESGGGLVQAGGSLRLSCAASGSILYHYAMGWYRQAPGKERELVAGISWRGGSTYYADSVKGRFTISRDNAMNTVYLQMNSLKPEDTAVYYCATLRYPYRFYAFQYYYWGQGTQVTVSS | low polyreactivity
25 | QVQLVESGGGLVQAGGSLRLSCAASGSILYPYAMGWYRQAPGKERELVAAIRSRGGSTYYADSVKGRFTISRDNAKNTGYLQMNSLKPEDTAVYYCAAGSTRARFDYWGQGTQVTVSS | high polyreactivity
26 | QVQLVESGGGLVQAGGSLRLSCAASGSILYRNAMGWYRQAPGKERELVAAITYSGARTYYADSVKGRFTISRDNAKNSVYLQMNSLKPEDTAVYYCAATAAGYWYSAYDYWGQGTQVTVSS | low polyreactivity
27 | QVQLVESGGGLVQAGGSLRLSCAASGSILYYNAMGWYRQAHGKERELVAAISTRGGSTYYADSVKGRFTISRDNAKNTVYLQMNSLKPEDTAVYYCAADHNVIWGYYYWGQGTQVTVSS | high polyreactivity
28 | QVQLVESGGGLVQAGGSLRLSCAASGSILYYNAMGWYRQAPGKERELVAAITSGGSTYADSVKGRFTISRDNAKNTFYLQMNCLKPEDTAVYYCAADLYWYLSDYGTTLEHDYWGQGTQVTVSS | low polyreactivity
29 | QVQLVESGGGLVQAGGSLRLSCAASGSILYYNAMGWYRQAPGKERELVAGIRSSGGSTYYADSVKGRFTISRDTAKNTVYLQMNSLKPEDTAVYYCAKRTYWRRGWGFDYWGQGTQVTVSS | high polyreactivity
30 | QVQLVESGGGLVQAGGSLRLSCAASGSILYYYAMGWYRQAPGKERELVAAISSSGGRTYYADSVKGRFTISRDNAKNTVYLQMNSLKPEDTAVYYCAATNRRQPYKDREDYWGQGTQVTVSS | high polyreactivity
31 | QVQLVESGGGLVQAGGSLRLSCAASGSINVRYAMGWYRQAPGKERELVAAISWSGGRTYYADSVKGRFTISRDNAKNTVYLQMNSLKPEDTAVYYCAADSSVRYRDTEDYWGQGTQVTVSS | low polyreactivity
32 | QVQLVESGGGLVQAGGSLRLSCAASGSIRHNTMGWYRQAPGKEREFVASISKRGGSTYYADSVKGRFTISRDNAKNTVYLQMNSLKPEYTAVYYCNAGAVTFVGRDYWGQGTQVTVSS | high polyreactivity
